Data on two molecules can be found in patent US20240425607A1 (published 2024).

Test [1] addresses T1, human IL-18BP (recombinant, construct not stated) (UniProt O95998 31-194).
T1 chain: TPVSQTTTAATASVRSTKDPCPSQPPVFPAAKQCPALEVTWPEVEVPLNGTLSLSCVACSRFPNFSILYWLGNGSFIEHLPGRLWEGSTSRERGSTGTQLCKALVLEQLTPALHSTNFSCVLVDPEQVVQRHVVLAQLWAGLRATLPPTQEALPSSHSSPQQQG
As to the kind of experiment: blocking ELISA. In general terms: ELISA stands for enzyme-linked immunosorbent assay.

The target of the next test is Cyno IL18-IL18BP (cynomolgus monkey). As to the kind of experiment: blocking ELISA.

A word on the IC50: it is the midpoint of a concentration-inhibition curve.

B1: ADI-66692 (antibody, V domains shown)
VH: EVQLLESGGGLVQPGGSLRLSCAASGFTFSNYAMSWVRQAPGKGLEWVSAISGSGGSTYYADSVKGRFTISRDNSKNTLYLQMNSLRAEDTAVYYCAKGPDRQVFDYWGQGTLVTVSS
VL: DIQMTQSPSSVSASVGDRVTITCRASQGIDSWLAWYQQKPGKAPKLLIYAASSLQSGVPSRFSGSGSGTDFTLTISSLQPEDFATYYCQHAYSFPYTFGGGTKVEIK
Turning to B1, the IC50 in test [1] was determined as 0.278 µg/mL.

B2: ADI-66716 (antibody, V domains shown)
VH: QLQLQESGPGLVKPSETLSLTCTVSGGSISSSDYYWGWIRQPPGKGLEWIGSIYYSGSTYYNPSLKSRVTISVDTSKNQFSLKLSSVTAADTAVYYCARGPHRQVFDYWGQGTLVTVSS
VL: DIQMTQSPSSVSASVGDRVTITCRASQGISSWLAWYQQKPGKAPKLLIYAASSLQSGVPSRFSGSGSGTDFTLTISSLQPEDFATYYCQQGSSFPYTFGGGTKVEIK
For the molecule B2, the results for the IC50 (in test [1]; with Cyno IL18-IL18BP) were 0.208 µg/mL and 8.18 µg/mL, respectively.
